The numbers were not newly measured in article PMC10330121, which cites them from elsewhere.

The target in series [1] is VRK1-K4me3 (Homo sapiens) (UniProt Q99986).
The target of series [2] is histone H3 N-terminal tail (Homo sapiens) (UniProt P68431).
Series [3] concerns the target PAF15 (Homo sapiens) (UniProt Q15004).

Chain of UHRF1 PHD (Q96T88 307-369): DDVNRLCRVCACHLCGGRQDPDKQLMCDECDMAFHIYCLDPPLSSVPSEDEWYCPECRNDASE
Chain of PAF15 (Homo sapiens) (Q15004 whole entry): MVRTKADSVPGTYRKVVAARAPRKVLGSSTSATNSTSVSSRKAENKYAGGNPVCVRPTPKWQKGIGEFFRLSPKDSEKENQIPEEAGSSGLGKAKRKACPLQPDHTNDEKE
Chain of VRK1-K4me3 (Homo sapiens) (Q99986 whole entry): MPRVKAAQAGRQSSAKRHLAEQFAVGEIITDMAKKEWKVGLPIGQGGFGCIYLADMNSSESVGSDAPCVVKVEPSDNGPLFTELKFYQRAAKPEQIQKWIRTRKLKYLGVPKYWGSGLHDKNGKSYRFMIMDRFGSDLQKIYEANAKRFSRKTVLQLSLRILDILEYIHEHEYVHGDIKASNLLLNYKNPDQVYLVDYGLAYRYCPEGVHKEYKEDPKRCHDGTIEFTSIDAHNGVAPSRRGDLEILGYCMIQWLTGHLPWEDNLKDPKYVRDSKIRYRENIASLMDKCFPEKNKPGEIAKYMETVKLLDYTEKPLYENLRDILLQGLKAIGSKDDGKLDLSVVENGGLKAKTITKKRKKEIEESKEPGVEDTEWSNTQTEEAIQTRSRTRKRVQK
Chain of PHF8 PHD-Jumonji (Q9UPP1 37-483): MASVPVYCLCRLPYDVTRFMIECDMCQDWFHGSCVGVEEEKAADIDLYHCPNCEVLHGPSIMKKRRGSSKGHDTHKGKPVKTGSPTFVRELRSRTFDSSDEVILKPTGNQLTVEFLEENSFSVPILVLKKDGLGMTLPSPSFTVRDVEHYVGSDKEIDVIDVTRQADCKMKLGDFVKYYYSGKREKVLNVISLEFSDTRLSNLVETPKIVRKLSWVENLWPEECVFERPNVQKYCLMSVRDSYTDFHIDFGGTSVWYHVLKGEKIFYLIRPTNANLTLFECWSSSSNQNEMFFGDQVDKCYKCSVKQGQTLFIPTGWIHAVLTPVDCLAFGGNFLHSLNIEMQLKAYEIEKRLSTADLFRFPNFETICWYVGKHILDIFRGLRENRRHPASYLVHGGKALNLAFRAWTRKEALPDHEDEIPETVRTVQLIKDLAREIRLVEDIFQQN

For PHF8 PHD-Jumonji (from UniProt Q9UPP1), the Kd in series [1] is 42 nM.
For the substance UHRF1 PHD (from UniProt Q96T88), the dissociation constant Kd in series [2] and in series [3] was 2000 nM throughout.

In general, Kd refers to the equilibrium constant for the complex coming apart.
